Reference: publication PMC2965138, “DEB025 (Alisporivir) Inhibits Hepatitis C Virus Replication by Preventing a Cyclophilin A Induced Cis-Trans Isomerisation in Domain II of NS5A” (PLoS ONE, 2010)

Biological target: T1, Recombinant 15N-labelled CypA (UniProt P62937 1-165, 15N-labelled)
T1 construct: Cyclophilin A (CypA), peptidyl-prolyl cis-trans isomerase; also called 15N-CypA; source: recombinant, produced and purified as described previously [18]
Assay: NMR titration; 15N-labelled CypA (100 µM) mixed with increasing concentrations of unlabelled peptide (0 to 2.5 mM); 1H,15N HSQC at each step; KD fitted from combined chemical shift perturbations
Settings: both partners purified

Row | Binder | Kd [µM]
1 | KFPRAMPIWARPDYNPPLLE (NS5A domain II of hepatitis C virus genotype 1b (Con1), residues 308-327; numbers count on: NS5A itself; also called WT peptide; Pep-WT peptide; source: synthetic peptide, bought: Neosystems (Strasbourg, France), purity greater than 95%) [Pep-WT (residues 308-327 of NS5A from HCV GT1b Con1)] | 802
2 | KFPRAMPIWARPEYNPPLLE (numbers count on: NS5A itself; also called D320E peptide; Pep-D320E peptide; source: synthetic peptide, bought: Neosystems (Strasbourg, France), purity greater than 95%) [Pep-D320E (residues 308-327 of NS5A from HCV GT1b Con1 with D320E)] | 1230
